Holding throughout (conditions): both partners purified
In assay [1] the target is T1, Flag-tagged hSpt16 (human, UniProt Q9Y5B9 1-1047).
T1 construct: human SUPT16H (hSpt16); methods print 'Flag-hSpt16', legends 'Spt16-FLAG'; also called Spt16-FLAG; Flag-hSpt16; source: Sf9 cells (pFastBac-FLAG-hSpt16), purified; also co-expressed with untagged hSSRP1 in Sf9, in cell extract
As to the kind of experiment: pull-down; Ni-NTA beads, His6-tagged NDF (WT, truncates or mutants; 40 pmol) as bait with 20 pmol Flag-tagged hSpt16 or FACT in 300 µl of 10 mM Tris-HCl pH 7.5, 200 mM NaCl, 0.2% Nonidet P-40, 10% glycerol, 4 °C 3 h; SDS-PAGE, silver staining.

Assay [2] has as its target T2, His6-hSpt16 (recombinant his-tagged Spt16 subunit of FACT) (human, UniProt Q9Y5B9 1-1047).
T2 construct: human SUPT16H (hSpt16); The His6 tag was inserted into pFastBac-FLAG-hSpt16; also called his-FACT subunit; source: Sf9 cells (Bac-to-Bac), expressed separately, purified similar to his-hNDF
As to the kind of experiment: pull-down; Flag M2 beads, NDF-Flag as bait; 10 mM Tris-HCl pH 7.5, 200 mM NaCl, 0.2% Nonidet P-40, 10% glycerol, 4 °C 3 h; SDS-PAGE, silver staining.

Assay [3] concerns the target T3, FACT complex used as prey in the FLAG pull-down with NDF-Flag (his-FACT) (human, UniProt Q9Y5B9 1-1047; Q08945 1-709).
T3 construct: human SUPT16H (hSpt16); human SSRP1; the his-tagged subunits are surmised because the bait was held on Flag M2 beads; source: Sf9 cells (Bac-to-Bac), his-FACT subunits expressed separately, purified similar to his-hNDF
Described as above.

Assay [4] addresses T4, Flag-tagged FACT complex (Flag-hSpt16 + untagged hSSRP1) (human, UniProt Q9Y5B9 1-1047; Q08945 1-709).
T4 construct: human SUPT16H (hSpt16); human SSRP1, untagged; complex formed beforehand by co-expression; also called FACT-FLAG; hFACT; source: Sf9 cells, co-expressed, purified (anti-Flag M2 agarose, 3x Flag peptide elution)
Description: co-sedimentation; sedimentation assay of condensates: NDF and FACT mixed in a 100 mM NaCl buffer without PEG, 10 min at 22 °C, 17,200g 10 min; supernatant and pellet on SDS-PAGE, Coomassie.

T1 sequence (Q9Y5B9 whole entry): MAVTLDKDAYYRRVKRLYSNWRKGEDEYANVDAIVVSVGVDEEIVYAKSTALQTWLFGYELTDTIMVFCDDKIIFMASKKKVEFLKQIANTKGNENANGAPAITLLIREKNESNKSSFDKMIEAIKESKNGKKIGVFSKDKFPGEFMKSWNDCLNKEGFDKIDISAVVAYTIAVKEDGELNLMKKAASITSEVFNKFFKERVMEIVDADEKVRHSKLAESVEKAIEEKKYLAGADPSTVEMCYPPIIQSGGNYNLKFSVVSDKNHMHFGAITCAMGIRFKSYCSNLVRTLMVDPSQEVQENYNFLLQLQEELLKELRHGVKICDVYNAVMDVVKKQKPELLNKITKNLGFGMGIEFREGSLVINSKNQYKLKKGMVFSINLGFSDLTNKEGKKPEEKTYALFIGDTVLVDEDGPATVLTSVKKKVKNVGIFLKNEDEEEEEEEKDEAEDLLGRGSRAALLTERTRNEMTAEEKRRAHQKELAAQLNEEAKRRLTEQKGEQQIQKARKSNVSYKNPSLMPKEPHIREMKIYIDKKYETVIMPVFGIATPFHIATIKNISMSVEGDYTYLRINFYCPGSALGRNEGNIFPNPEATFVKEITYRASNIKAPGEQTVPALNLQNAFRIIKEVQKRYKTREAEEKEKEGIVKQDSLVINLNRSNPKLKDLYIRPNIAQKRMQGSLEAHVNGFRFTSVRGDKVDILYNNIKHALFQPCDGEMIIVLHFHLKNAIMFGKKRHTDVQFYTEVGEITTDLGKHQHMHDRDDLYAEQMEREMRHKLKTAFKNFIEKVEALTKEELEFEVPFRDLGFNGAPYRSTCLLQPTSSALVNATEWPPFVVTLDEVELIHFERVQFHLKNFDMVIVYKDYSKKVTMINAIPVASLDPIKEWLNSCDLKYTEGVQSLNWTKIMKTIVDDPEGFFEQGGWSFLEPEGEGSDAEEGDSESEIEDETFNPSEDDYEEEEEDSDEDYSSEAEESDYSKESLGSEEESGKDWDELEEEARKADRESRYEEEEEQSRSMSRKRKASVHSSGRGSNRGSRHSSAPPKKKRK
T4 sequence (Q9Y5B9 whole entry, chain 1 of 2): as the sequence (Q9Y5B9 whole entry) above
T4 sequence (Q08945 whole entry, chain 2 of 2): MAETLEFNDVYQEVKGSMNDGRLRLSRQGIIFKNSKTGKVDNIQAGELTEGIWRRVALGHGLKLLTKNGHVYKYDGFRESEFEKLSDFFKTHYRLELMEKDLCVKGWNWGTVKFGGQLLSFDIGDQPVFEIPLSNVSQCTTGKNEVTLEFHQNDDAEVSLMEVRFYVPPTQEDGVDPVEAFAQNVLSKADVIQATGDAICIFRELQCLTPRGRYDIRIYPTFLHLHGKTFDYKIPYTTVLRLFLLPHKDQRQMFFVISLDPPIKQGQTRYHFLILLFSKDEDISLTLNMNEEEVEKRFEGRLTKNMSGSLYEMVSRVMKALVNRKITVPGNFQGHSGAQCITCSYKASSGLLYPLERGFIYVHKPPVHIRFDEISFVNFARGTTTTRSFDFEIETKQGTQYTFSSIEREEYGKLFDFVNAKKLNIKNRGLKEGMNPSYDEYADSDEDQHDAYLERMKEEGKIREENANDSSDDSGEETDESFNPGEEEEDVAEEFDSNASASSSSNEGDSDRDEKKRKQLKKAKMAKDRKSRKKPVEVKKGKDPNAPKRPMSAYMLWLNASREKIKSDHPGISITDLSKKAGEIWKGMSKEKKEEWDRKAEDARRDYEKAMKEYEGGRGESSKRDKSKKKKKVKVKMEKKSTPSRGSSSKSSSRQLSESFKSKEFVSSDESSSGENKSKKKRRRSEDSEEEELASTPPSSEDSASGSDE
T3 sequence (Q9Y5B9 whole entry, chain 1 of 2): as the sequence (Q9Y5B9 whole entry) above
T3 sequence (Q08945 whole entry, chain 2 of 2): as the sequence (Q08945 whole entry, chain 2 of 2) above
T2 sequence (Q9Y5B9 whole entry): as the sequence (Q9Y5B9 whole entry) above

B1: NDF_K161A, full-length, His6-tagged (natural protein, human, UniProt Q49A26 1-553, looked up)
chain: MAAVSLRLGDLVWGKLGRYPPWPGKIVNPPKDLKKPRGKKCFFVKFFGTEDHAWIKVEQLKPYHAHKEEMIKINKGKRFQQAVDAVEEFLRRAKGKDQTSSHNSSDDKNRRNSSEERSRPNSGDEKRKLSLSEGKVKKNMGEGKKRVSSGSSERGSKSPLARAQEQSPRKRGRPPKDEKDLTIPESSTVKGMMAGPMAAFKWQPTASEPVKDADPHFHHFLLSQTEKPAVCYQAITKKLKICEEETGSTSIQAADSTAVNGSITPTDKKIGFLGLGLMGSGIVSNLLKMGHTVTVWNRTAEKCDLFIQEGARLGRTPAEVVSTCDITFACVSDPKAAKDLVLGPSGVLQGIRPGKCYVDMSTVDADTVTELAQVIVSRGGRFLEAPVSGNQQLSNDGMLVILAAGDRGLYEDCSSCFQAMGKTSFFLGEVGNAAKMMLIVNMVQGSFMATIAEGLTLAQVTGQSQQTLLDILNQGQLASIFLDQKCQNILQGNFKPDFYLKYIQKDLRLAIALGDAVNHPTPMAAAANEVYKRAKALDQSDNDMSAVYRAYIH
notes: human NDF (Glyr1), full-length, K161A; source: bacterial expression (pET21b), purified
For the molecule B1, the binding result in assay [1] is listed as “binds”.

B2: hNDF-FLAG (recombinant NDF-Flag) (natural protein, human, UniProt Q49A26 1-553, looked up)
chain: MAAVSLRLGDLVWGKLGRYPPWPGKIVNPPKDLKKPRGKKCFFVKFFGTEDHAWIKVEQLKPYHAHKEEMIKINKGKRFQQAVDAVEEFLRRAKGKDQTSSHNSSDDKNRRNSSEERSRPNSGDEKRKLSLSEGKVKKNMGEGKKRVSSGSSERGSKSPLKRAQEQSPRKRGRPPKDEKDLTIPESSTVKGMMAGPMAAFKWQPTASEPVKDADPHFHHFLLSQTEKPAVCYQAITKKLKICEEETGSTSIQAADSTAVNGSITPTDKKIGFLGLGLMGSGIVSNLLKMGHTVTVWNRTAEKCDLFIQEGARLGRTPAEVVSTCDITFACVSDPKAAKDLVLGPSGVLQGIRPGKCYVDMSTVDADTVTELAQVIVSRGGRFLEAPVSGNQQLSNDGMLVILAAGDRGLYEDCSSCFQAMGKTSFFLGEVGNAAKMMLIVNMVQGSFMATIAEGLTLAQVTGQSQQTLLDILNQGQLASIFLDQKCQNILQGNFKPDFYLKYIQKDLRLAIALGDAVNHPTPMAAAANEVYKRAKALDQSDNDMSAVYRAYIH
notes: human nucleosome destabilizing factor (NDF; Glyr1); source: bacterial expression (pET21b-hNDF-FLAG), purified as previously described
As to B2, the binding result in assay [2] and in assay [3] was “binds” in each case.

B3: NDF_R162A, full-length, His6-tagged (natural protein, human, UniProt Q49A26 1-553, looked up)
chain: MAAVSLRLGDLVWGKLGRYPPWPGKIVNPPKDLKKPRGKKCFFVKFFGTEDHAWIKVEQLKPYHAHKEEMIKINKGKRFQQAVDAVEEFLRRAKGKDQTSSHNSSDDKNRRNSSEERSRPNSGDEKRKLSLSEGKVKKNMGEGKKRVSSGSSERGSKSPLKAAQEQSPRKRGRPPKDEKDLTIPESSTVKGMMAGPMAAFKWQPTASEPVKDADPHFHHFLLSQTEKPAVCYQAITKKLKICEEETGSTSIQAADSTAVNGSITPTDKKIGFLGLGLMGSGIVSNLLKMGHTVTVWNRTAEKCDLFIQEGARLGRTPAEVVSTCDITFACVSDPKAAKDLVLGPSGVLQGIRPGKCYVDMSTVDADTVTELAQVIVSRGGRFLEAPVSGNQQLSNDGMLVILAAGDRGLYEDCSSCFQAMGKTSFFLGEVGNAAKMMLIVNMVQGSFMATIAEGLTLAQVTGQSQQTLLDILNQGQLASIFLDQKCQNILQGNFKPDFYLKYIQKDLRLAIALGDAVNHPTPMAAAANEVYKRAKALDQSDNDMSAVYRAYIH
notes: human NDF (Glyr1), full-length, R162A; source: bacterial expression (pET21b), purified
Turning to B3, the binding result in assay [1] is given as “binds”.

B4: His6-hNDF, full-length wild type (natural protein, human, UniProt Q49A26 1-553, looked up)
chain: MAAVSLRLGDLVWGKLGRYPPWPGKIVNPPKDLKKPRGKKCFFVKFFGTEDHAWIKVEQLKPYHAHKEEMIKINKGKRFQQAVDAVEEFLRRAKGKDQTSSHNSSDDKNRRNSSEERSRPNSGDEKRKLSLSEGKVKKNMGEGKKRVSSGSSERGSKSPLKRAQEQSPRKRGRPPKDEKDLTIPESSTVKGMMAGPMAAFKWQPTASEPVKDADPHFHHFLLSQTEKPAVCYQAITKKLKICEEETGSTSIQAADSTAVNGSITPTDKKIGFLGLGLMGSGIVSNLLKMGHTVTVWNRTAEKCDLFIQEGARLGRTPAEVVSTCDITFACVSDPKAAKDLVLGPSGVLQGIRPGKCYVDMSTVDADTVTELAQVIVSRGGRFLEAPVSGNQQLSNDGMLVILAAGDRGLYEDCSSCFQAMGKTSFFLGEVGNAAKMMLIVNMVQGSFMATIAEGLTLAQVTGQSQQTLLDILNQGQLASIFLDQKCQNILQGNFKPDFYLKYIQKDLRLAIALGDAVNHPTPMAAAANEVYKRAKALDQSDNDMSAVYRAYIH
notes: human nucleosome destabilizing factor (NDF; Glyr1), full-length; vector name has His6 before hNDF, a legend prints 'NDF-his'; also called NDF-his; His6-tagged NDF-WT; source: bacterial expression (pET21b-His6-hNDF), purified as previously described
As for B4, the binding result in assay [4] and in assay [1] was “binds” in each case.

The record behind these values is article PMC12611769, “Phase-separated NDF−FACT condensates facilitate transcription elongation on chromatin” (Nature Cell Biology, 2025).
